Test results as given in patent US20230321192A1 (published 2023).

B7: Human IL-18BP (amino acids 31-194) (receptor)
chain: TPVSQTTTAATASVRSTKDPCPSQPPVFPAAKQCPALEVTWPEVEVPLNGTLSLSCVACSRFPNFSILYWLGNGSFIEHLPGRLWEGSTSRERGSTGTQLCKALVLEQLTPALHSTNFSCVLVDPEQVVQRHVVLAQLWAGLRATLPPTQEALPSSHSSPQQQGGLNDIFEAQKIEWHEHHHHHH
modifications: biotin on the AviTag (BirA ligase) where used biotinylated

Assays:
[1] = molecular target: T1, Mouse IL-18BP (amino acids 31-194) (mouse, UniProt Q9Z0M9 29-193, biotin on the AviTag (BirA ligase)); assay: SPR; end of the range tied to mA7 by Table 9
T1 construct: Secreted from Expi293 cells (H7 signal peptide); also called mIL-18BP
T1 sequence: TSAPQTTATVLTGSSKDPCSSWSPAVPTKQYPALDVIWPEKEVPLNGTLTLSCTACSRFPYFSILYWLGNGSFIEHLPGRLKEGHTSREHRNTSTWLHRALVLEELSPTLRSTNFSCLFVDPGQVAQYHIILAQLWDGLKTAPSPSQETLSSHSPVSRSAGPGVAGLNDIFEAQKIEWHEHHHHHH

[2] = molecular target: T1, Mouse IL-18BP (amino acids 31-194); assay: SPR; end of the range tied to mC1 by Table 9
[3] = molecular target: T1, Mouse IL-18BP (amino acids 31-194); assay: SPR; KD ratio normalized to WT IL-18; lower end taken as mE8 (lowest ratio in Table 9)
[4] = molecular target: T2, Mouse IL-18Rα ectodomain (amino acids 19-329) (mouse, UniProt Q61098 19-329, biotin on the AviTag (BirA ligase)); assay: SPR; end of the range tied to mE8 by Table 9
T2 construct: range 19-329; Secreted from Expi293 cells (H7 signal peptide); also called mIL-18Rα; Ra
T2 sequence: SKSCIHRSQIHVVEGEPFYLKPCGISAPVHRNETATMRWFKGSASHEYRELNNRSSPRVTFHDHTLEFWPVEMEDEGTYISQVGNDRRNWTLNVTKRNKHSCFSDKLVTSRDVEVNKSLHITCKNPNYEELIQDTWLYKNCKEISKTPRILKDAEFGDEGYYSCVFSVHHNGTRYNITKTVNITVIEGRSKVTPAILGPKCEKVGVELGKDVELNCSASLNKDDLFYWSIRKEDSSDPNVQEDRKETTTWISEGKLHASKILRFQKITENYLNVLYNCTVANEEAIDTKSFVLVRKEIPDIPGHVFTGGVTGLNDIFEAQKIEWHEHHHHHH

[5] = molecular target: T1, Mouse IL-18BP (amino acids 31-194); assay: SPR
Method: Experiments were conducted using a Biacore T100 and carried out at 25° C. Biotinylated IL-18Rα or IL-18BP were immobilized onto a Biacore biotin capture chip (Series S CAP sensor chip, GE Healthcare) to yield an Rmax of ~50 RU (IL-18Rα) or ~10 RU (IL-18BP). Measurements were made with serial dilutions of the IL-18 variants in HEPES buffered Saline-P+ buffer (10 mM HEPES pH 7.4, 150 mM NaCl, 0.005% surfactant P20). The surface was regenerated by three 60-sec injections of regeneration buffer (¾ (v/v) 8 M guanidine hydrochloride with ¼ (v/v) 1 M sodium hydroxide). Experiments were performed in multiple channels simultaneously for increased observations. All data were analyzed with the Biacore T100 evaluation software version 2.0 with a 1:1 Langmuir binding model.
As the human and mouse interspecies cross-reactivity of IL-18 for IL-18Rα is poor, murine equivalents of the DR-IL-18 variants that could be used for studies in mice were created. Similar to the approach taken for hIL-18 above, a combinatorial library of mIL-18 variants randomizing a similar set of mIL-18Rα/mIL-18BP contact residues (Table 3) was created, yielding a library of 4 × 10⁸ transformants. Directed evolution was performed on this library similar to how it was performed with the human IL-18 library; the selection strategy is summarized in FIG. 10A.

[6] = molecular target: B7; assay: on-yeast binding isotherm, flow cytometry
[7] = molecular target: T3, Human Interleukin-18 (mature form), wild-type (human, UniProt Q14116 37-193); assay: cell-based or functional assay
T3 sequence: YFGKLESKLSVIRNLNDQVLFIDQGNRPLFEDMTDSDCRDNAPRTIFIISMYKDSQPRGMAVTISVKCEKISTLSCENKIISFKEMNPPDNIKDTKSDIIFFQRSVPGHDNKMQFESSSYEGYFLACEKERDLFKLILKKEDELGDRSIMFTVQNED

B1: mA7 (ligand)
chain: YFGRLHCTTAVIRNINDQVLFVDKRQPVFEDMTDIDQSASEPQTRLIIYAYGDNRVRGKAVTLSVKDSKMSTLSCKNKIISFEEMDPPENIDDIQSDLIFFQKRVPGHNKMEFESSLYEGHFLACQKEDDAFKLILKKKDENGDKSVMFTLTNLHQS
notes: Murine DR-IL-18 variant; recombinant with C-terminal hexahistidine tag in SPR; fusion and tag not written
Kd [1]: 14 µM

B2: mC1 (ligand)
chain: NFGRLHCTTAVIRNINDQVLFVDKRQPVFEDMTDIDQSASEPQTRLIIYAYVDRRLRGKAVTLSVKDSKMSTLSCKNKIISFEEMDPPENIDDIQSDLIFFQKKVPGHNKMEFESSLYEGHFLACQKEDDAFKLILKKKDENGDKSVMFTLTNLHQS
notes: as for B1
Kd [2]: 29 µM

B3: mE8 (ligand)
chain: NFGRLHCTTAVIRNINDQVLFVDKRQPVFEDMTDIDQSASEPQTRLIIYVYTDGRRRGKAVTLSVKDSKMSTLSCKNKIISFEEMDPPENIDDIQSDLIFFQKKVPGHDKMEFESSLYEGHFLACQKEDDAFKLILKKKDENGDKSVMFTLTNLHQS
notes: as for B1
IL-18 BP:Ra Dissociation Constant Ratio [3]: 9.3e+06 | Kd [4]: 0.0017 µM

B4: mCS2 (ligand)
chain: HFGRLHCTTAVIRNINDQVLFVDKRQPVFEDMTDIDQSASEPQTRLIIYAYGDSRARGKAVTLSVKDSKMSTLSCKNKIISFEEMDPPENIDDIQSDLIFFQKRVPGHNKMEFESSLYEGHFLACQKEDDAFKLILKKKDENGDKSVMFTLTNLHQS
notes: Murine DR-IL-18 consensus variant; recombinant with C-terminal hexahistidine tag in SPR; fusion and tag not written
Kd [5]: 11 µM

B5: hA8 (ligand)
chain: YFGKLESRLSVIRNLNDQVLFIDQGNRPLFEDMTDSDCRDNAPRTIFIISKYKDKQPRAQAVTISVKCEKISTLSCENKIISFKEMNPPDNIKDTKSDIIFFQRDVPGHKHKMQFESSSYEGYFLACEKERDLFKLILKKEDELGDRSIMFTIQNED
notes: Human DR-IL-18 variant; display fusion not written
EC50 [6]: > 1 µM

B6: hCS2 (ligand)
chain: YFGKLESKLSVIRNLNDQVLFIDQGNRPLFEDMTDSDCRDNAPRTIFIISTYKDKQPRAKAVTISVKCEKISTLSCENKIISFKEMNPPDNIKDTKSDIIFFQRDVPGHKHKMQFESSSYEGYFLACEKERDLFKLILKKEDELGDRSIMFTIQNED
notes: Human DR-IL-18 consensus variant; E. coli recombinant with C-terminal hexahistidine tag in SPR; fusion and tag not written
EC50 [6]: > 1 µM

B7
IC50 of recombinant IL-18BP on the IL-18 HEK-Blue reporter signal (hIL-18 fixed at 5 nM) [7]: 0.003 µM
